# Test results published in paper PMC9122904, “Insights into the client protein release mechanism of the ATP-independent chaperone Spy” (Nature Communications, 2022).
# T1: Spy_(29-124) K75D (UniProt P77754 52-147, K75D)
# T1 construct: source: E. coli BL21 (DE3), purified (Ni-NTA, cation exchange, SEC); not shown: His6, N-terminal, cleaved; SUMO, N-terminal, cleaved
# T1 sequence (looked up): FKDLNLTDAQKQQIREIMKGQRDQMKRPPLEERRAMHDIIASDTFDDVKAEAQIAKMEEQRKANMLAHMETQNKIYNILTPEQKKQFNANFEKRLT
# T2: Spy wild type (Spy_(1-138)) (UniProt P77754 24-161)
# T2 construct: Spy, ATP-independent periplasmic chaperone; also called WT; wt; source: E. coli BL21 (DE3), purified (Ni-NTA, cation exchange, SEC); not shown: His6, N-terminal, cleaved; SUMO, N-terminal, cleaved
# T2 sequence (looked up): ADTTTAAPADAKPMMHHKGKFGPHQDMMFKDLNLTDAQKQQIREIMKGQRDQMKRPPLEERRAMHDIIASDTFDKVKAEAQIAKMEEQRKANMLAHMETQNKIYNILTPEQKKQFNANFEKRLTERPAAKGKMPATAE
# T3: Spy_(27-124) (UniProt P77754 50-147)
# T3 construct: source: E. coli BL21 (DE3), purified (Ni-NTA, cation exchange, SEC); not shown: His6, N-terminal, cleaved; SUMO, N-terminal, cleaved
# T3 sequence (looked up): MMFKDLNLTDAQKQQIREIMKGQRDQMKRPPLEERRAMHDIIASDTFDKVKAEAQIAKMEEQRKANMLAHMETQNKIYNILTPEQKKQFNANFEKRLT
# T4: Spy_(29-130) (UniProt P77754 52-153)
# T4 construct: Spy chaperone, residues 29-130; source: E. coli BL21 (DE3), purified (Ni-NTA, cation exchange, SEC); not shown: His6, N-terminal, cleaved; SUMO, N-terminal, cleaved
# T4 sequence (looked up): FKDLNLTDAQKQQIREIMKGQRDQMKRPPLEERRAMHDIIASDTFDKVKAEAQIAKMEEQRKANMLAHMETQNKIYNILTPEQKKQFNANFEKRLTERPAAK
# T5: Spy_(29-127) (UniProt P77754 52-150)
# T5 construct: Spy chaperone, residues 29-127; source: E. coli BL21 (DE3), purified (Ni-NTA, cation exchange, SEC); not shown: His6, N-terminal, cleaved; SUMO, N-terminal, cleaved
# T5 sequence (looked up): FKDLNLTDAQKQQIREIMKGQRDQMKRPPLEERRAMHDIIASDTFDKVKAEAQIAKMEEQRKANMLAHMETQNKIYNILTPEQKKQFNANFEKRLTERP
# T6: Spy_(21-124) (UniProt P77754 44-147)
# T6 construct: source: E. coli BL21 (DE3), purified (Ni-NTA, cation exchange, SEC); not shown: His6, N-terminal, cleaved; SUMO, N-terminal, cleaved
# T6 sequence (looked up): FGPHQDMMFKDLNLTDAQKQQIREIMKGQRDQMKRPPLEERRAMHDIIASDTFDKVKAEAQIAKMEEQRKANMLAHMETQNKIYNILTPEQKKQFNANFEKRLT
# T7: Spy_(24-130) (UniProt P77754 47-153)
# T7 construct: Spy chaperone, residues 24-130; source: E. coli BL21 (DE3), purified (Ni-NTA, cation exchange, SEC); not shown: His6, N-terminal, cleaved; SUMO, N-terminal, cleaved
# T7 sequence (looked up): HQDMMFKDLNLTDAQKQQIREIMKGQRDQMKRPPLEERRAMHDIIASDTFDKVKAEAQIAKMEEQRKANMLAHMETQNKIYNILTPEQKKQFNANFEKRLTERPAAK
# T8: Spy_(27-130) (UniProt P77754 50-153)
# T8 construct: Spy chaperone, residues 27-130; source: E. coli BL21 (DE3), purified (Ni-NTA, cation exchange, SEC); not shown: His6, N-terminal, cleaved; SUMO, N-terminal, cleaved
# T8 sequence (looked up): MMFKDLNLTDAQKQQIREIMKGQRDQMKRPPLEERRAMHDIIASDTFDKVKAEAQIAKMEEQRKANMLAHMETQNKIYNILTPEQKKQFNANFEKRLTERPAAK
# B1: Im7 H40W L53A I54A (natural protein)
# chain: MELKNSISDYTEAEFVQLLKEIEKENVAATDDVLDVLLEWFVKITEHPDGTDAAYYPSDNRDDSPEGIVKEIKEWRAANGKPGFKQG
# modifications: biotin (EZ-link NHS-biotin, 1:1 molar ratio of biotin to protein)
# notes: Im7 (colicin E7 immunity protein) with H40W L53A I54A; Spy was made with an N-terminal His6-SUMO tag that was cleaved; also called Im7AAW; partially folded client; source: purified by a similar procedure to Spy
# Assays:
# Assay in all cases: BLI; Octet RED96; client biotinylated and loaded on streptavidin sensors; Spy or Spy variant in solution at 0.25, 0.5, 1, 1.5 and 2 μM; 40 mM HEPES, 150 mM NaCl, pH 7.5; Kd calculated as koff/kon
# Conditions in all cases: both partners purified
# Spy_(29-124) K75D = biological target: T1, Spy_(29-124) K75D
# [1] = biological target: T2, Spy wild type (Spy_(1-138))
# Summary of the method: (§1)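 Client proteins were biotinylated with EZ-link NHS-biotin at a 1:1 molar ratio, loaded onto streptavidin sensors, and measured by biolayer interferometry on an Octet RED96. The loaded sensors were dipped into 40 mM HEPES, 150 mM NaCl, pH 7.5 holding the analyte protein at 0.25, 0.5, 1, 1.5 or 2 μM, then moved to buffer without it. Fitting the wavelength-shift association and dissociation curves in SigmaPlot 12.0 gave the observed association rate and koff, kon was taken from the observed rate plotted against analyte concentration, and Kd was calculated as koff/kon.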
# Spy_(27-124) = biological target: T3, Spy_(27-124)
# Summary of the method: as §1
# Spy_(29-130) = biological target: T4, Spy_(29-130)
# Summary of the method: as §1
# Spy_(29-127) = biological target: T5, Spy_(29-127)
# Summary of the method: as §1
# Spy_(21-124) = biological target: T6, Spy_(21-124)
# Summary of the method: as §1
# Spy_(24-130) = biological target: T7, Spy_(24-130)
# Summary of the method: as §1
# Spy_(27-130) = biological target: T8, Spy_(27-130)
# Summary of the method: as §1
binder,measurement,setting,value
B1,koff,Spy_(29-124) K75D,0.0712 s⁻¹
same,kon,[1],276000 M⁻¹ s⁻¹
same,kon,Spy_(27-124),314000 M⁻¹ s⁻¹
same,kon,Spy_(29-130),283000 M⁻¹ s⁻¹
same,kon,Spy_(29-127),309000 M⁻¹ s⁻¹
same,kon,Spy_(21-124),267000 M⁻¹ s⁻¹
same,kon,Spy_(24-130),210000 M⁻¹ s⁻¹
same,kon,Spy_(27-130),313000 M⁻¹ s⁻¹
